From US20150056222A1 (Regeneron, published 2015)

T1: hPRLR.mmh (soluble monomeric human PRLR) (human)
T1 construct: soluble monomeric construct
T1 chain: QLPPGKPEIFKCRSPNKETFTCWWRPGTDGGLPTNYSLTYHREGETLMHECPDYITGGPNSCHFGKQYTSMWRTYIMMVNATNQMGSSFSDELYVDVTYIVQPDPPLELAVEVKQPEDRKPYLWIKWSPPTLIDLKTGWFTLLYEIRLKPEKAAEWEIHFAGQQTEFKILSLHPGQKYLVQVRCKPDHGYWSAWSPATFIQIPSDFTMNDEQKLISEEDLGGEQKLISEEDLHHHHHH

T2: hPRLR.mFc (soluble dimeric human PRLR) (human)
T2 construct: dimeric construct
T2 chain: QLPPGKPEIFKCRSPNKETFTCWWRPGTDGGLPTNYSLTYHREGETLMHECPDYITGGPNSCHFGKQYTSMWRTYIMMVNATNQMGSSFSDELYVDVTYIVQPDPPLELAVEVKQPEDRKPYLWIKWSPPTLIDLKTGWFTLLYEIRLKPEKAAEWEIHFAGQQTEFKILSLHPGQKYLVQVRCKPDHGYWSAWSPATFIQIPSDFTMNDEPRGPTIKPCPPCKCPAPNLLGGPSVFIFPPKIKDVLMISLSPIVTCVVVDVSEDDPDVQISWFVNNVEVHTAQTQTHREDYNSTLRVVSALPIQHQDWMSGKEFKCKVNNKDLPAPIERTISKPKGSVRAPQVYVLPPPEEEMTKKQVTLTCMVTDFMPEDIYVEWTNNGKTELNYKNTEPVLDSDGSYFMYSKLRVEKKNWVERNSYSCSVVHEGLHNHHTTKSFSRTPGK

T3: mfPRLR.mmh (soluble monomeric macaca fascicularis PRLR) (macaca fascicularis)
T3 construct: soluble monomeric construct; also called macaca fascicularis (mf) PRLR.mmh
T3 chain: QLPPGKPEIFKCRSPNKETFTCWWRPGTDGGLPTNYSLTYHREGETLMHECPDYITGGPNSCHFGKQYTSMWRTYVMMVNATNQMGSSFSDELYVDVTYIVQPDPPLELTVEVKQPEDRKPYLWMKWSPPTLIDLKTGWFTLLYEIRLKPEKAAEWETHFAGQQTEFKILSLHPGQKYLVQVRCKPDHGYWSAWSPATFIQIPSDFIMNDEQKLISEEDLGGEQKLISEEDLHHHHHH

T4: human prolactin receptor (PRLR) on cells (human, UniProt P16471 25-622)
T4 sequence: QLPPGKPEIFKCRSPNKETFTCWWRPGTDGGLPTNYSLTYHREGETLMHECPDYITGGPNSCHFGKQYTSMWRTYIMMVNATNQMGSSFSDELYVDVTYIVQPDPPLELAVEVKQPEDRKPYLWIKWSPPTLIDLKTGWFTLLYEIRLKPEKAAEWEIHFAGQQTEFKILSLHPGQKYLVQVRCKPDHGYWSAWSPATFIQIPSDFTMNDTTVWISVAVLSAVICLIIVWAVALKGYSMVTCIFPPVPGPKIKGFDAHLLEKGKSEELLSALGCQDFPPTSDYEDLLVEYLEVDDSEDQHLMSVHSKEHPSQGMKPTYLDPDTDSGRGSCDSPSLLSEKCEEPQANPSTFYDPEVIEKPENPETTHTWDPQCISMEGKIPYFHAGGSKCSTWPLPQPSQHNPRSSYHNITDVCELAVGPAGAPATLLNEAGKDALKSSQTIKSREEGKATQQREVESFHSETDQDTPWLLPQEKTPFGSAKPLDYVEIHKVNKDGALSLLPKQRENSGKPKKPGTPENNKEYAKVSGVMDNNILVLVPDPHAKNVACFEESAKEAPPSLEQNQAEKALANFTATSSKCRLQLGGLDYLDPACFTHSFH

T5: mouse PRLR on HEK293 cells (mouse, UniProt Q08501 20-608)
T5 construct: whole, on cells; also called mPRLR; HEK293/mPRLR
T5 sequence (looked up): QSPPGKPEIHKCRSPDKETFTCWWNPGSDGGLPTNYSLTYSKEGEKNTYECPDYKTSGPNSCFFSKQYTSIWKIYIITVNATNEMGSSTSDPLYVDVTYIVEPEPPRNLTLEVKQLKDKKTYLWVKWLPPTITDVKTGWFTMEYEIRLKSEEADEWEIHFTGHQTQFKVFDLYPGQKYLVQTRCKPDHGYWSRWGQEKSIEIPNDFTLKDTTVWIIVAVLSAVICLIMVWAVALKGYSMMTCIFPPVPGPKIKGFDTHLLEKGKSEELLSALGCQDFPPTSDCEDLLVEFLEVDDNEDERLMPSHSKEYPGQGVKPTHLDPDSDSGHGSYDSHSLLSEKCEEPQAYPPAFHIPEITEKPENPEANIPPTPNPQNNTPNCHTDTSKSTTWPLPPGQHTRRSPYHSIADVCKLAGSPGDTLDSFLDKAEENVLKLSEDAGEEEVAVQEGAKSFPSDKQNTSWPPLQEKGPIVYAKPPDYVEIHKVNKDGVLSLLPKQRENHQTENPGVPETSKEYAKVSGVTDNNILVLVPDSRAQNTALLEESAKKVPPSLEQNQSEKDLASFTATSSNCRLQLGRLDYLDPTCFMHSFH

T6: monkey (macaca fascicularis) PRLR on HEK293 cells (macaca fascicularis, UniProt A0A2K5WXK1 25-619)
T6 construct: also called mfPRLR; HEK293/mfPRLR
T6 sequence: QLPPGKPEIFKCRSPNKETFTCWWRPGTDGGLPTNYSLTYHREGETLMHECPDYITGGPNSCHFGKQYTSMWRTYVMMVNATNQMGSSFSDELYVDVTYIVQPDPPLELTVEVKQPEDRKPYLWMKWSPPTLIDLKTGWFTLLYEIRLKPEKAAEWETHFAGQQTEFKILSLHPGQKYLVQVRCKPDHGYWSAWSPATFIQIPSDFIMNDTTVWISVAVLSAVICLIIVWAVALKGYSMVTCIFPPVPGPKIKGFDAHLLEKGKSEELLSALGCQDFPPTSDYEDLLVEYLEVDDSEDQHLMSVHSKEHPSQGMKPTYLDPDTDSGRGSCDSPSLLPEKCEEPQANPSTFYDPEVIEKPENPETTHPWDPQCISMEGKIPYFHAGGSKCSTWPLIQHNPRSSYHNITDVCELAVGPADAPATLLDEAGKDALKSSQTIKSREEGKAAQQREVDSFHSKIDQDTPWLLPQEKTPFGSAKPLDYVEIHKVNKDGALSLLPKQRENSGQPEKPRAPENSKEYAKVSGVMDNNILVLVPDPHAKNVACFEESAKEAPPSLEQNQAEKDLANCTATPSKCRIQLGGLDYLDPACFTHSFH


Tests used:
[1] = molecular target: T1, hPRLR.mmh (soluble monomeric human PRLR); assay: SPR, 37C, mAb capture
Procedure: (§1) Measurements were conducted on a T200 Biacore instrument. Kinetic association (kₐ) and dissociation (kd) rate constants were determined by processing and fitting the data to a 1:1 binding model using Scrubber 2.0 curve fitting software. Binding dissociation equilibrium constants (KD) and dissociative half-lives (t_{1/2}) were calculated from the kinetic rate constants as: KD (M)=kd/kₐ; and […].

[2] = molecular target: T2, hPRLR.mFc (soluble dimeric human PRLR); assay: SPR, 37C, mAb capture
Procedure: as §1

[3] = molecular target: T3, mfPRLR.mmh (soluble monomeric macaca …); assay: SPR, 37C, mAb capture
Procedure: as §1

[4] = molecular target: T4, human prolactin receptor (PRLR) on cells; assay: cell-based or functional assay
[5] = molecular target: T4, human prolactin receptor (PRLR) on cells; assay: FACS, HEK293/hPRLR cells; also: test concentration or dose not given here
[6] = molecular target: T5, mouse PRLR on HEK293 cells; assay: FACS, HEK293/mPRLR cells; also: test concentration or dose not given here
[7] = molecular target: T6, monkey (macaca fascicularis) PRLR on …; assay: FACS, HEK293/mfPRLR cells; also: test concentration or dose not given here
[8] = molecular target: T4, human prolactin receptor (PRLR) on cells; assay: FACS, T47D cells (native PRLR); also: test concentration or dose not given here

Row | T½ [1] [min] | T½ [2] [min] | T½ [3] [min] | % Internalization relative to Control I (alexa488 intensity in intracellular vesicles at 37 C, T47D cells) [4] [%] | FACS Cell Binding (Fold Above Background) [5] [fold above background] | FACS Cell Binding (Fold Above Background) [6] [fold above background] | FACS Cell Binding (Fold Above Background) [7] [fold above background] | FACS Cell Binding (Fold Above Background) [8] [fold above background] | Binder
1 | 42.3 | 163 | 36.4 | 214 | 38 | 1 | 29 | 46 | H1H6975N (antibody, human IgG1, V domains shown, also called H2M6975N) VH: EVHLVESGGGLVQPGGSLRLSCAASGFTFSSYEMNWVRQTPGKGLEWISHISSRSVIIYYADSVKGRFTISRDNAKNSLFLQMNSLRAEDTAVYFCAGITIFGIPEYWGQGTLVTVSS VL: EIVLTQSPATLSLSPGERATLSCRASQSVSSYFAWYQQKPGQAPRLLIYDASSRATGIPTRFSGSGSGTDFTLTISSLEPEDFAVYYCQQRSSWPITFGQGTRLEIK
2 | 10 | 79 | 11 | 198 | 35 | 1 | 29 | 41 | H1H6800P (antibody, human IgG1, V domains shown, human IgG1 Fc (H1H)) VH: EVQLVESGGGLVQPGRSLRLSCAASGFTFDGYAMHWVRQGPGKGLEWVSGISWYSDTLGYADSVKGRFTISRDNAKNSLYLQMNSLRTEDTAFYYCAKISSSGWAFDYWGQGTLVTVSS VL: EIVLTQSPGTLSLSPGERATLSCRASHSVSSAYLAWYQQKPGQTPRLLIYGTSSRATGIPDRFSGSGSGTDFTLTISRLEPEDFAVYYCQQYGSSPLFTFGPGTKVDIK
3 | 32 | 186 | 18 | 190 | 39 | 1 | 28 | 39 | H1H6803P (antibody, human IgG1, V domains shown, human IgG1 Fc (H1H)) VH: EVQLVESGGGVVRPGGSLRLSCAASGFKFDDYGMTWVRHVPGKGLEWVSGINWNGGRTGYTDSVKGRFTISRDNAKNSLYLQMNSLRAEDTALYHCAGARRDAFDIWGQGTMVTVSS VL: DIQMTQSPSSLSASIGDRVTITCRASQNIIKYLNWYQQNAGKAPKLLIYTASSLQSGVPSRFSGSGSGTDFTLTISSLQPEDFATYYCQQSSSSPYTFGQGTKLEIK
4 | 25 | 112 | 21 | 186 | 36 | 2 | 26 | 38 | H1H6762P (antibody, human IgG1, V domains shown, human IgG1 Fc (H1H)) VH: QVQLVESGGGVVQPGRSLRLSCAASGFTFSHYGMVWVRQPPGKGLEWVALISFDGTTKYYADSVKGRFTISRDNSKNTLYLQMNSLRAEDTAVYFCVGAIAAAAFDLWGRGTLVTVSS VL: EIVMTQSPATLSVSPGERATLSCRASQSVSSDLAWYQQKPGQAPRLLIYSASARATGIPARFTGSGSGTDFTLTISSLQSEDFAVYYCQQYNNWPMYTFGQGTKLEIK
5 | 3 | 52 | 1 | 149 | 47 | – | 88 | 45 | H1H6801P (antibody, human IgG1, V domains shown, human IgG1 Fc (H1H)) VH: QVQLQQSGPGLVKPSQTLSLTCVISGDSVSSNTAWNWVRQSPSRGLEWLGRTYYRSKWYNDYAVSVKSRITINPDTSKNQFSLLMNSVTPEDTAVYYCARVVRGLNYFDYWGQGTLVTVSS VL: DIVMTQSPDSLAVSLGERATINCKSSQSVLYNSNNKNYLAWYQQKPGQPPKLLIYWSSSRESGVPDRFSGSGSGTDFTLTISGLQAEDVAIYYCQQYSTIPYTFGQGTKLEIK
6 | 0.4 | 5 | – | 15.3 | 6 | 2 | 11 | 9 | H1H6959N2 (antibody, human IgG1, V domains shown, also called H2M6959N2) VH: EVQLVESGGGLVQPGRSLRLSCAASGFTFDDYAMHWVRQAPGKGLEWVSGISWHSGIIGYADSVKGRFTISRDNAKNSLYLQMNSLRTEDAALYYCAKIGSYFYFDSWGQGTLVTVSS VL: EIVLTQSPGTLSLSPGERATLSCRASQSVSSNYLAWYQQKPGQAPRLLIYGASSRATGIPDRFSGSGSGTDFTLTISRLEPEDFAVYYCQQFGSSGYTFGQGTNLEIK
